These results are taken from publication PMC9834311.

The target in this test is E. coli F1Fo ATP synthase subunit b (cysteine-free enzyme) (E. coli) (UniProt P0ABA0). In words: cryo-EM structure; detergent-solubilised (digitonin) cysteine-free E. coli F1Fo ATP synthase (WT at 11 μM, εΔCTH2 mutant at 9 μM) with 10 mM MgATP, pH 8.0, 22 °C, 45 s in all until freezing.

As a reminder, the stoichiometry N is the number of molecules, sites or subunits per partner or assembly. Consider “E. coli F1Fo ATP synthase subunit b (cysteine-free enzyme) (from UniProt P0ABA0 1-156) (natural protein)”, for which the stoichiometry N came to 2.
